# Legend:
# [1] = molecular target: syntaxin-1A (1–265) S225C, endogenous cysteines replaced by serine (Rattus norvegicus) (UniProt P32851); assay: FRET or BRET; stopped-flow; Alexa Fluor 488 (donor) and Alexa Fluor 647 (acceptor) on syntaxin and SNAP25; one partner fixed at 0.125 μM and the other titrated, or equimolar; 37 °C; 20 mM Hepes, 150 mM KCl, 0.1 mM TCEP, pH ~7.4
# [2] = molecular target: 2:1 syntaxin:SNAP25 complex (premixed syntaxin-1A (1–265) S225C and SNAP25a (1–206) M49C) (Rattus norvegicus) (UniProt P32851); assay: FRET or BRET; stopped-flow; donor-labelled syntaxin and acceptor-labelled SNAP25 at 1:1, unlabeled synaptobrevin titrated in excess; syntaxin and SNAP25 premixed, or SNAP25 and synaptobrevin added together to syntaxin; 37 °C
# [3] = molecular target: SNAP25a (1–206) M49C, endogenous cysteines replaced by serine (Rattus norvegicus) (UniProt P60881); assay: FRET or BRET + SEC; equimolar stopped-flow titration at 37 °C (kobs^2 hyperbolic) and size-exclusion chromatography of the 1:1 mix after overnight incubation at 4 °C (excess of free SNAP25)
# [4] = molecular target: SNAP25a (1–206) M49C, endogenous cysteines replaced by serine (Rattus norvegicus) (UniProt P60881); assay: FRET or BRET; stopped-flow; Alexa Fluor 488 (donor) and Alexa Fluor 647 (acceptor) on syntaxin and SNAP25; one partner fixed at 0.125 μM and the other titrated, or equimolar; 37 °C; 20 mM Hepes, 150 mM KCl, 0.1 mM TCEP, pH ~7.4
substance,measurement,setting,value
"SNAP25a (1–206) M49C, endogenous cysteines replaced by serine (from UniProt P60881-2 1-206) (natural protein)",intercept of kobs over [SNAP25]0,[1],0.019
synaptobrevin 2 (1–96) S61C (from UniProt P63045 1-96) (domain or fragment),"rate constant of the irreversible step (first, exponential phase)",[2],7520 M⁻¹ s⁻¹
"syntaxin-1A (1–265) S225C, endogenous cysteines replaced by serine (from UniProt P32851 1-265) (domain or fragment)",stoichiometry N (syntaxin per SNAP25),[3],2
same,intercept of kobs over [syntaxin]0,[4],0.0032
